These are literature values, as cited in paper PMC3472557.

By Kd is commonly meant the concentration at which binding is half-saturated.

Series [1] concerns the target ASPP2 (Homo sapiens) (UniProt Q13625). Briefly: solid-phase ELISA. Background: ELISA stands for enzyme-linked immunosorbent assay.
For series [2] the target is unchanged. Kind of series: BIAcore SPR. Background: Surface plasmon resonance follows binding to a sensor surface in real time, without labels.

Chain of ASPP2 (Homo sapiens) (Q13625 whole entry): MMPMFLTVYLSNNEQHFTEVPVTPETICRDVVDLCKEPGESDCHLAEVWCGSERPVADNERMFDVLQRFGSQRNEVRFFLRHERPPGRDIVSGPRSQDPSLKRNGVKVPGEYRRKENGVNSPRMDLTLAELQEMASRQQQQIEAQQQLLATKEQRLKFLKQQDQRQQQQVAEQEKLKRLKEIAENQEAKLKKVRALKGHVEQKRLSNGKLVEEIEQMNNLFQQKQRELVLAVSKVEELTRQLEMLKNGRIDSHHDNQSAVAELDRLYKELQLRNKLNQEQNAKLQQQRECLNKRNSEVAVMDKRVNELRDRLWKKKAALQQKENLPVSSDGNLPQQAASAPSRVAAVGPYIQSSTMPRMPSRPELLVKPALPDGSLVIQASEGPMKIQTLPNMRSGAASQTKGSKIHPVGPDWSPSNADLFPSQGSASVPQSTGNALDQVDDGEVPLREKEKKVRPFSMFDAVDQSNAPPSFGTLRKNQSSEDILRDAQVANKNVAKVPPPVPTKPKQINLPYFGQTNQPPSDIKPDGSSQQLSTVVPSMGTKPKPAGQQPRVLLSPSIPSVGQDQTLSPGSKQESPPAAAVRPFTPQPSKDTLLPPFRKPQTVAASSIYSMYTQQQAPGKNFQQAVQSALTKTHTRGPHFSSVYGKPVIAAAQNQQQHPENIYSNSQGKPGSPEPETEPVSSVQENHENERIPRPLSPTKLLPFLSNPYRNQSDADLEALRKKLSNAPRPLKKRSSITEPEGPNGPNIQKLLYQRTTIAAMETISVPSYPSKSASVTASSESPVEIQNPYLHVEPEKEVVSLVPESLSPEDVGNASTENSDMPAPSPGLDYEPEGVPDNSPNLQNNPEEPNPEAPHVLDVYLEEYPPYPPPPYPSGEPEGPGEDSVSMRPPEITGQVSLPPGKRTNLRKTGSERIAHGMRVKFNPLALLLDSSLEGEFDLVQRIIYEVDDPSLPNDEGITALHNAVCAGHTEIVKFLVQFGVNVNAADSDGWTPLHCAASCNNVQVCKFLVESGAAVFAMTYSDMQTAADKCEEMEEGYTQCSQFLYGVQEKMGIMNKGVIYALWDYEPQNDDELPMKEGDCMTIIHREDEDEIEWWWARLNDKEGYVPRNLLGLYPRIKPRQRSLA

p53 (from UniProt P04637): the Kd with ASPP2 (Homo sapiens) [1] is 23 nM; in the series with ASPP2 (Homo sapiens) [2], 30 nM.
